From paper PMC2843633

Target: human fibrinogen receptor (GPIIb/IIIa), purified (human) (UniProt P05106)
Assay: ELISA; GPIIb/IIIa coated at 40 nM on Nunc Maxisorb plates; 5′Nuc/SUMO 250 – 1.95 nM in solution, 0.1% Tween 20; detected with polyclonal anti-5′Nuc IgG or anti-SUMO IgG; apparent KD from four experiments

B1: 5′Nuc/SUMO fusion protein (Glossina morsitans morsitans 5′nucleotidase-related protein, recombinant, refolded) (enzyme)
chain: DDLYPLTIMHTNDFHARFEETNVKGNPCKSGEKCIGGLARVLHTIKKIIKEQEKKNIESLYINAGDNFQGTIWYNIGRWNVTSELMNIQPPDVMVLGNHEFDHGIDGLLPFLNNMDKTEIVVANMDARDEPQVAKKIKPFTIIKKKYRNIGVIGVVVEEVPDLANTGKLKFRNESEAILEAARNLKKEDPSVNIIIVVSHVGFDVDKIIAERTGSEVDIIVGGHSHTVLYTGTPPGPEKPEDNYPYVYNHPSGNKVLVVQAVCHAKYVGNLTVFFDKKGKVVTYEGAPIYMDTKVEQDKDVLEAMKPWRKLIDEKTKLVVGRTNVDLPRDICRSEECALGNLYTDSMIYAFGGKENCKSGSTWTTAPIAFVHAGAMRSSLHQGDILYSDALLLSPFTNMVVAYDLPGAQLKAALEFSAAPKNEDEKRRFLQMSGLKVTYNMSRAANNRIVDLKVRTNVCPYDQYENLDEKKTYRVVSPSFLQGGGDGFKMLRDYAKNIQNQKIDLDALVDYLKKFSPLAPKAEGRITIIH
B1 was tested, and the Kd was 92 nM.
